Test results: patent publication CN115536747A

Molecular target: 人TROP2 on cells (表达TROP2的CHO细胞系; MCF, MDA-MB-231, MDA-MB-468, HCC1395 breast cancer cells) (human) (UniProt P09758)
Assay: flow cytometry, scFv-Fc on CHO cells expressing TROP2

Sequence of UniProt P09758 (P09758 27-323): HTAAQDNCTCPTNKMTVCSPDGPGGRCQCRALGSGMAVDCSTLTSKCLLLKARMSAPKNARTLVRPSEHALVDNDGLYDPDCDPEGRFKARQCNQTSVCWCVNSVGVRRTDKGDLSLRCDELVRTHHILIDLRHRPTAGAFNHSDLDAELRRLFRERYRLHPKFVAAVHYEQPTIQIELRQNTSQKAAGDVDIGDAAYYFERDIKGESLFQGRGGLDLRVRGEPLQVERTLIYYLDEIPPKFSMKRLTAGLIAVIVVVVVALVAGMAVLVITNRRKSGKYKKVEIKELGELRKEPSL

- 阳性百分数: 89.3%
B1: 1F7 scFv-Fc蛋白 (from pFH-1F7; scFv fused to human IgG4 Fc) (Fc fusion, not shown: a dimerising Fc or GST)
chain: QVQLVQSGAEVKKPGASVKVSCKASGYTFTSYGINWVRQATGRGLEWMGWMNPNSGNTGYAQKFQGRVTITADESTSTAYMELSSLRSEDTAVYYCARPNTGGDGAFDIWGQGTMVTVSSGGSSRSSSSGGGGSGGGGDIQLTQSPSSVSASVGDRVTITCRASQGISSWLAWYRQKPGKAPKLLIYAASSLQSGVPSRFSGSGSGTDFTLTISSLQPEDFATYYCQQANSFPITFGQGTRLEIK
